{"source": "patent US20040009486A1", "about": "“Compositions and methods utilizing DNA polymerases” (priority 1999, published 2004)", "key": {"[1]": {"system": "primer:template", "assay": "Fidelity screen with rhodamine labeled non-complementary ddNTP", "format": "biochemical", "settings": "R110-labeled incorrect ddNTP", "method": "Reactions (10 μl) contained 1 unit of enzyme in 1× reaction buffer, 15 nM primer template, 25 nM of unlabeled complementary ddNTP, and 25, 100, 500, or 1000 nM of rhodamine labeled non-complementary ddNTP in four separate reactions. The reactions were incubated in a Perkin-Elmer 9600 for 25 cycles as follows: 96° C. for 10 s, 50° C. for 5 s, and 60° C. for 30 s. The reactions were then quenched with ice-cold 0.2 M EDTA (final concentration) and the products were purified from unincorporated rhodamine labeled ddNTPs and analyzed as described above.\nFidelity was determined as the tendency of a DNA polymerase to incorporate the correct nucleotide in the presence of increasing amounts of a non-complementary nucleotide. These assays employed constant amounts of primer:template, an unlabeled complementary ddNTP and DNA polymerase, and various concentrations of a rhodamine-labeled non-complementary ddNTP, as described in the Experimental Protocol. The amount of misextended primers is plotted against the ratio of rhodamine-labeled incorrect ddNTP/unlabeled correct ddNTP (FIG. 18 panels A and B). We performed similar assays for all possible mispairs (Table IX).\nTo address these concerns, the insertion fidelity of the JDF-3 P410L/A485T and Taq F667Y mutants was compared. In the first set of fidelity assays, a constant amount of primer:template, an unlabeled complementary ddNTP, and increasing concentrations of R110-labeled non-complementary ddNTP was used (Materials and Methods). […] The amount of misextended primers was determined and plotted against the ratio of R110-labeled incorrect ddNTP/unlabeled correct ddNTP (FIG. 27, panels A and B). Similar assays for all 12 possible mispairs was performed (ddG:dT, ddT:dG, ddT:dC, ddC:dT, ddC:dA, ddA:dC, ddA:dG, ddG:dA, ddT:dT, ddC:dC, ddA:dA, ddG:dG). […] The other mispairs are formed less frequently, and at similar rates for the JDF-3 P410L/A485T and Taq F667Y mutants (data not shown).\nFidelity assays using labeled ddNTPs (10 μl) contained 1 unit DNA polymerase in 1× reaction buffer, 15 nM primer: template, 25 nM of unlabeled complementary ddNTP, and 25, 100, 500, or 1000 nM of rhodamine-labeled non-complementary ddNTP in four separate reactions. The reactions were incubated in a Perkin-Elmer 9600 for 25 cycles as follows: 96° C. for 10 s, 50° C. for 5 s, and 60° C. for 30 s. The reactions were quenched and analyzed as above."}, "[2]": {"settings": "cited from earlier work"}, "[3]": {"settings": "Gardner and Jack, 1999; cited from earlier work"}, "[4]": {"settings": "Reha-Krantz et al., 1993; cited from earlier work"}, "[5]": {"assay": "Polymerase constant for dNTP (Table IV)", "format": "biochemical", "settings": "head names no parameter", "source_text": "(§1) Recombinant JDF-3 DNA polymerase was purified as described below (see “Purification of JDF-3” (method 1)). The biochemical properties of JDF-3 DNA polymerase have been compared to those of other commercially available archaeal DNA polymerases. […] JDF-3 DNA polymerase was therefore chosen for development of a DNA sequencing enzyme."}, "[6]": {"system": "Primed M13", "assay": "Polymerase specific activity on primed M13 (Table IV)", "format": "biochemical", "source_text": "as §1"}, "[7]": {"system": "DNA", "assay": "Polymerase constant for DNA (Table IV)", "format": "biochemical", "settings": "head names no parameter", "source_text": "as §1"}, "[8]": {"assay": "3′ to 5′ exonuclease activity, Kong et al. method, bacterial lysates", "format": "biochemical", "method": "To analyze JDF-3 mutant proteins, the DNA sequence encoding JDF-3 DNA polymerase was PCR amplified using primers GGGAAACATATGATCCTTGACGTTGATTAC (where NdeI site in bold and start codon underlined) and GGGAAAGGATCCTCACTTCTTCTTCCCCTTC (where BamHI site shown in bold type). The PCR products were digested, purified, and ligated into a high expression level vector using standard methods. Plasmid clones were transformed into BL21(DE3). Recombinant bacterial clones were grown using standard procedures and JDF-3 polymerase mutants were expressed in the absence of induction. The exonuclease and polymerase activities of recombinant clones were assayed using bacterial lysates. Typically, crude extracts were heated at 70° C. for 15-30 minutes and then centrifuged to obtain a cleared lysate.\nThere are several methods of measuring 3′ to 5′ exonuclease activity known in the art, including that of Kong et al. (Kong et al., 1993, J. Biol. Chem. 268: 1965) and that of Southworth et al. (Southworth et al., 1996, Proc. Natl. Acad. Sci. U.S.A. 93: 5281), the full contents of both of which are hereby incorporated by reference. The exonuclease activity of wild type and active mutant polymerases as measured by the Kong et al. method were as follows: […]"}, "[9]": {"system": "Activated DNA", "assay": "Polymerase specific activity on activated DNA (Table IV)", "format": "biochemical", "method": "as §1\nDNA polymerase activity was measured using purified JDF-3 polymerase mutants or heat-treated bacterial extracts prepared from various mutant clones. DNA polymerase activity was measured by monitoring the incorporation of ^3H-TTP into activated calf thymus DNA. A typical DNA polymerase reaction cocktail contained:\nIncorporation was measured by adding 1 μl of polymerase samples to 10 μl aliquots of polymerase cocktail. DNA polymerase samples were diluted in a suitable storage buffer (e.g., 25 mM Tris-HCl (pH 7.5), 100 mM KCl, 0.1 mM EDTA, 1 mM DTT, 0.1% (v/v) Tween 20, 0.1% (v/v) Igepal 630, 10 μg/ml BSA, and 50% (v/v) glycerol). Polymerization reactions were conducted for 30 minutes at 72° C. Extension reactions were quenched on ice, and then 5 μl aliquots were spotted immediately onto DE81 ion-exchange filters (2.3 cm; Whatman #3658323). Unincorporated [^3H]TTP was removed by 6 washes with 2×SCC (0.3M NaCl, 30 mM sodium citrate, pH 7.0), followed by a brief wash with 100% ethanol. Incorporated radioactivity was measured by scintillation counting. […]"}}, "data": [{"molecule": "AmpliTaq FS: Taq F667Y mutant DNA polymerase (ABI / Perkin Elmer)", "values": [{"measurement": "ddG:dT mispair formation frequency, higher than JDF-3 P410L/A485T", "setting": "[1]", "result": 20, "unit": "fold"}, {"measurement": "ddT:dC mispair formation frequency, higher than JDF-3 P410L/A485T", "setting": "[1]", "result": 3, "unit": "fold"}]}, {"molecule": "Y412V: VENT DNA polymerase site-directed mutant Y412V (Gardner and Jack, 1999)", "values": [{"measurement": "dideoxynucleotide incorporation relative to unmutated / wild type enzyme", "setting": "[2]; literature values", "result": 2, "unit": "fold"}, {"measurement": "increase in incorporation of ribonucleotide ATP", "setting": "[3]", "result": 200, "unit": "fold"}]}, {"molecule": "Y412F: VENT DNA polymerase site-directed mutant Y412F (Gardner and Jack, 1999)", "values": [{"measurement": "analog incorporation", "setting": "[2]; Gardner and Jack, 1999", "result": "no change in analog incorporation"}]}, {"molecule": "L412M: L412M bacteriophage T4 DNA polymerase mutant (Reha-Krantz et al., 1993) (protein, UniProt P04415 1-898, looked up, variant L412M) DNA-directed DNA polymerase: MKEFYISIETVGNNIVERYIDENGKERTREVEYLPTMFRHCKEESKYKDIYGKNCAPQKFPSMKDARDWMKRMEDIGLEALGMNDFKLAYISDTYGSEIVYDRKFVRVANCDIEVTGDKFPDPMKAEYEIDAITHYDSIDDRFYVFDLLNSMYGSVSKWDAKLAAKLDCEGGDEVPQEILDRVIYMPFDNERDMLMEYINLWEQKRPAIFTGWNIEGFDVPYIMNRVKMILGERSMKRFSPIGRVKSKLIQNMYGSKEIYSIDGVSILDYLDLYKKFAFTNLPSFSLESVAQHETKKGKLPYDGPINKLRETNHQRYISYNIIDVESVQAIDKIRGFIDLVLSMSYYAKMPFSGVMSPIKTWDAIIFNSLKGEHKVIPQQGSHVKQSFPGAFVFEPKPIARRYIMSFDLTSMYPSIIRQVNISPETIRGQFKVHPIHEYIAGTAPKPSDEYSCSPNGWMYDKHQEGIIPKEIAKVFFQRKDWKKKMFAEEMNAEAIKKIIMKGAGSCSTKPEVERYVKFSDDFLNELSNYTESVLNSLIEECEKAATLANTNQLNRKILINSLYGALGNIHFRYYDLRNATAITIFGQVGIQWIARKINEYLNKVCGTNDEDFIAAGDTDSVYVCVDKVIEKVGLDRFKEQNDLVEFMNQFGKKKMEPMIDVAYRELCDYMNNREHLMHMDREAISCPPLGSKGVGGFWKAKKRYALNVYDMEDKRFAEPHLKIMGMETQQSSTPKAVQEALEESIRRILQEGEESVQEYYKNFEKEYRQLDYKVIAEVKTANDIAKYDDKGWPGFKCPFHIRGVLTYRRAVSGLGVAPILDGNKVMVLPLREGNPFGDKCIAWPSGTELPKEIRSDVLSWIDHSTLFQKSFVKPLAGMCESAGMDYEEKASLDFLFG", "values": [{"measurement": "ddGTP needed for inhibition, less than wild-type polymerase", "setting": "[4]", "result": 50, "unit": "fold"}]}, {"molecule": "Pfu: Family B DNA polymerase from Pyrococcus furiosus (protein, UniProt P61875 1-775, looked up) DNA polymerase: MILDVDYITEEGKPVIRLFKKENGKFKIEHDRTFRPYIYALLRDDSKIEEVKKITGERHGKIVRIVDVEKVEKKFLGKPITVWKLYLEHPQDVPTIREKVREHPAVVDIFEYDIPFAKRYLIDKGLIPMEGEEELKILAFDIETLYHEGEEFGKGPIIMISYADENEAKVITWKNIDLPYVEVVSSEREMIKRFLRIIREKDPDIIVTYNGDSFDFPYLAKRAEKLGIKLTIGRDGSEPKMQRIGDMTAVEVKGRIHFDLYHVITRTINLPTYTLEAVYEAIFGKPKEKVYADEIAKAWESGENLERVAKYSMEDAKATYELGKEFLPMEIQLSRLVGQPLWDVSRSSTGNLVEWFLLRKAYERNEVAPNKPSEEEYQRRLRESYTGGFVKEPEKGLWENIVYLDFRALYPSIIITHNVSPDTLNLEGCKNYDIAPQVGHKFCKDIPGFIPSLLGHLLEERQKIKTKMKETQDPIEKILLDYRQKAIKLLANSFYGYYGYAKARWYCKECAESVTAWGRKYIELVWKELEEKFGFKVLYIDTDGLYATIPGGESEEIKKKALEFVKYINSKLPGLLELEYEGFYKRGFFVTKKRYAVIDEEGKVITRGLEIVRRDWSEIAKETQARVLETILKHGDVEEAVRIVKEVIQKLANYEIPPEKLAIYEQITRPLHEYKAIGPHVAVAKKLAAKGVKIKPGMVIGYIVLRGDGPISNRAILAEEYDPKKHKYDAEYYIENQVLPAVLRILEGFGYRKEDLRYQKTRQVGLTSWLNIKKS", "values": [{"measurement": "dNTP (μM each)", "setting": "[5]", "result": "16 ± 2", "unit": "μM each"}, {"measurement": "Specific Activity (U/mg) × 10^4 Primed M13", "setting": "[6]", "result": "2.0 ± .02 (U/mg) × 10^4"}, {"measurement": "DNA", "setting": "[7]", "result": 0.7, "unit": "nM"}]}, {"molecule": "JDF-3: Recombinant wild-type Thermococcus species JDF-3 Family B DNA polymerase (SEQ ID NO: 2) (protein, Thermococcus sp. JDF-3) MILDVDYITENGKPVIRVFKKENGEFRIEYDREFEPYFYALLRDDSAIEEIKKITAERHGRVVKVKRAEKVKKKFLGRSVEVWVLYFTHPQDVPAIRDKIRKHPAVIDIYEYDIPFAKRYLIDKGLIPMEGEEELKLMSFDIETLYHEGEEFGTGPILMISYADESEARVITWKKIDLPYVEVVSTEKEMIKRFLRVVKEKDPDVLITYNGDNFDFAYLKKRCEKLGVSFTLGRDGSEPKIQRMGDRFAVEVKGRVHFDLYPVIRRTINLPTYTLEAVYEAVFGKPKEKVYAEEIATAWETGEGLERVARYSMEDARVTYELGREFFPMEAQLSRLIGQGLWDVSRSSTGNLVEWFLLRKAYERNELAPNKPDERELARRRGGYAGGYVKEPERGLWDNIVYLDFRSLYPSIIITHNVSPDTLNREGCRSYDVAPEVGHKFCKDFPGFIPSLLGNLLEERQKIKRKMKATLDPLEKNLLDYRQRAIKILANSYYGYYGYARARWYCRECAESVTAWGREYIEMVIRELEEKFGFKVLYADTDGLHATIPGADAETVKKKAMEFLNYINPKLPGLLELEYEGFYVRGFFVTKKKYAVIDEEGKITTRGLEIVRRDWSEIAKETQARVLEAILRHGDVEEAVRIVREVTEKLSKYEVPPEKLVIHEQITRELKDYKATGPHVAIAKRLAARGVKIRPGTVISYIVLKGSGRIGDRAIPFDEFDPTKHKYDADYYIENQVLPAVERILRAFGYRKEDLRYQKTRQVGLGAWLKPKGKKK", "values": [{"measurement": "Exo activity (U/mg)", "setting": "[8]", "result": 915, "unit": "U/mg"}, {"measurement": "dNTP (μM each)", "setting": "[5]", "result": "16 ± 2", "unit": "μM each"}, {"measurement": "Specific Activity (U/mg) × 10^4 Activated DNA", "setting": "[9]", "result": "1.2 ± .07 (U/mg) × 10^4"}, {"measurement": "Specific Activity (U/mg) × 10^4 Primed M13", "setting": "[6]", "result": "5.2 (U/mg) × 10^4"}, {"measurement": "DNA", "setting": "[7]", "result": 2.0, "unit": "nM"}]}]}
